According to US20230028110A1 (ADAPTATE BIOTHERAPEUTICS, published 2023):
Where two headings read alike, the source gives them in different places.

Columns and labels:
[1] = biological target: T1, Vδ1 chain of the γδ TCR on human Vδ1 γδ T cells (human); test: flow cytometry on Vδ1 γδ T-cells, anti-human IgG secondary antibody, % cells bound IgG
T1 construct: whole, on cells; also called cell surface Vδ1 TCR; Vδ1-positive γδ T cells
Description: (§1) After washing, cells were incubated for a further 15 minutes with anti-human IgG secondary antibodies before washing and fixing. The amount of antibody bound to each cell type was determined by flow cytometry.

[2] = biological target: T1, Vδ1 chain of the γδ TCR on human Vδ1 γδ …; test: cell-based or functional assay
[3] = biological target: T1, Vδ1 chain of the γδ TCR on human Vδ1 γδ …; test: cell-based or functional assay; remark: listed apart in the source
[4] = biological target: PD-1 on activated CD4 and CD8 T-cells; test: flow cytometry on anti-CD3/anti-CD28-activated CD4 and CD8 T-cells, anti-human IgG secondary antibody, % cells bound IgG
Chain of PD-1 on activated CD4 and CD8 T-cells (chain, as listed by the source limits assumed): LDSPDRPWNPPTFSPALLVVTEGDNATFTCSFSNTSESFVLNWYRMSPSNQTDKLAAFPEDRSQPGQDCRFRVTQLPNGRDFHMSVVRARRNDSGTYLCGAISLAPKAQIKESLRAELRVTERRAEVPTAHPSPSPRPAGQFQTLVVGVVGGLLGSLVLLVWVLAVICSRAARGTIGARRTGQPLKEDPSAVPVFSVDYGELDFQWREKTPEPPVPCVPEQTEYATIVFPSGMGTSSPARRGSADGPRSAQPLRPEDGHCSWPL

[5] = biological target: T2, 4-1BB on activated CD8 T-cells (human, UniProt Q07011); test: flow cytometry on anti-CD3/anti-CD28-activated CD8 T-cells, anti-human IgG secondary antibody, % cells bound IgG
T2 construct: also called 4-1BB+ CD8 T-cells
T2 sequence (Q07011 24-255 limits assumed): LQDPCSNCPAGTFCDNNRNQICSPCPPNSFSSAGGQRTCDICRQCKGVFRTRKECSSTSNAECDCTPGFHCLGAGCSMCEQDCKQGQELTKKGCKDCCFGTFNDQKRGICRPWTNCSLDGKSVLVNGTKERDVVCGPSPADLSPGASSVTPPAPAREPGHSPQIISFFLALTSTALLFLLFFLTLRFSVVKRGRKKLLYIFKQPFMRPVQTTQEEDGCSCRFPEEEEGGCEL

[6] = biological target: T3, FAPα on FAPα+ fibroblasts (human, UniProt Q12884 1-760); test: flow cytometry on BJ fibroblasts, anti-human Fc secondary antibody, % IgG bound cells
T3 construct: whole, on cells; also called FAPα+ target cells (BJ fibroblasts, human dermal fibroblasts)
Description: After washing, cells were incubated for a further 15 minutes with anti-human Fc secondary antibodies before washing and fixing. The amount of antibody bound to each cell type was determined by flow cytometry.

[7] = biological target: T4, L1 (DV1-GV4), soluble human Vδ1/Vγ4 γδ TCR heterodimer in leucine zipper format (human); test: SPR (Reichert 4SPR), antibody on Protein A chip, antigen flown over
T4 construct: Biotinylated in the DELFIA ranking; also called Antigen L1 (TRDV1/TRGV4); human DV1-GV4; not shown: gamma chain: Vγ4 (TRGV4) domain on a TCR constant region, leucine zipper, histidine tag
T4 sequence (main, as listed by the source): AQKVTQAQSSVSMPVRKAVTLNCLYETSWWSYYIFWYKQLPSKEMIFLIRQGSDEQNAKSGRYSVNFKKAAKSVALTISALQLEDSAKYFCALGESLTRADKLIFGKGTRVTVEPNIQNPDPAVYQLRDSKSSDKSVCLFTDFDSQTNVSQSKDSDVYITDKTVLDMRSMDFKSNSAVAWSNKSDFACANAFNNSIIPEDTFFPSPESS

[8] = biological target: T1, Vδ1 chain of the γδ TCR on human Vδ1 γδ …; test: flow cytometry, Vδ1 γδ T cells of donor ATS006, mAb titrated up to about 500 nM at 4 C, anti-human IgG detection
Description: All incubation steps were performed at 4° C. and mAb binding was determined using flow cytometry to measure the median level of fluorescence. Logarithmic four parameter dose-response curves were fitted using GraphPad Prism 9. […] For Vδ1-positive γδ T cell, data is represented as the mean two donors.
A range of target cells were assayed to determine the specificity and affinity of Vδ1 mAb binding. This included expanded skin-derived Vδ1 γδ T-cells, HEK293T cells, Raji cells, and multiple leukocyte subsets within human primary blood mononuclear cells. Adherent or semi-adherent cells (skin-derived Vδ1 γδ T-cells, HEK293T) were detached from tissue culture flask and resuspended in PBS. Similarly, non-adherent cell types (Raji, PBMC), were harvested and resuspended in PBS. Cells were seeded at a final density of 100,000 cells per well in v-bottom 96-well plates. Cells underwent centrifugation and the cell pellets were resuspended in FcR blocking reagent according to the manufacturer's instructions, and incubated for 20 minutes at 4C prior to a further wash. […] To determine the quantity of mAb bound to the cell surface, the cells were then stained with a murine anti-human IgG secondary antibody, conjugated to APC (dilution: 1:100). For Vδ1 γδ T-cells, HEK293T and Raji, the cells were also stained solely with a viability dye.

[9] = biological target: T5, Recombinant human TIGIT (human, UniProt Q495A1 22-141); test: SPR, Reichert 4SPR; antibody captured on Protein A chip, human TIGIT flown over
T5 construct: also called T cell immunoreceptor with Ig and ITIM domains
T5 sequence (looked up): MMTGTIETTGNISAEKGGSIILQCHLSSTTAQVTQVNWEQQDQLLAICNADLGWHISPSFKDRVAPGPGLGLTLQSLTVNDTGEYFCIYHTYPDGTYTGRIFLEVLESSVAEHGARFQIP
Description: Recombinant human Vδ1 heterodimer or human TIGIT was flown over the cell at a top concentration of 100 nM.

[10] = biological target: T1, Vδ1 chain of the γδ TCR on human Vδ1 γδ …; test: flow cytometry, anti-human IgG secondary antibody, Vδ1 γδ T-cells
Description: (§2) Initially CD4 and CD8 T-cells were negatively selected by magnetic sorting from PBMC buffy coats extracted from whole blood. […] After washing, cells were incubated for a further 15 minutes with anti-human IgG secondary antibodies before washing and fixing. The amount of antibody bound to each cell type was determined by flow cytometry.

[11] = biological target: T1, Vδ1 chain of the γδ TCR on human Vδ1 γδ …; test: flow cytometry on Vδ1 γδ T-cells, anti-human IgG secondary antibody, % cells bound IgG; remark: listed apart in the source
[12] = biological target: T6, TIGIT on activated CD8 T-cells (human, UniProt Q495A1); test: flow cytometry, anti-human IgG secondary antibody, activated CD8 T-cells
T6 sequence (receptor chain, looked up): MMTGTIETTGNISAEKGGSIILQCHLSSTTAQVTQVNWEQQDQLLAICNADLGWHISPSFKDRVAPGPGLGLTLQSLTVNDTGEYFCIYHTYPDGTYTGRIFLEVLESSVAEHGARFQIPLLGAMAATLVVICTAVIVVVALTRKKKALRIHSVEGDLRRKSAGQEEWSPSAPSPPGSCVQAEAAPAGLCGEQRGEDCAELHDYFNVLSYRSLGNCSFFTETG
Description: as §2

[13] = biological target: T7, Recombinant human OX40 (human, UniProt P43489 29-216, limits assumed); test: SPR, Reichert 4SPR; antibody captured on Protein A chip, human OX40 flown over
T7 construct: also called CD134
T7 sequence (looked up): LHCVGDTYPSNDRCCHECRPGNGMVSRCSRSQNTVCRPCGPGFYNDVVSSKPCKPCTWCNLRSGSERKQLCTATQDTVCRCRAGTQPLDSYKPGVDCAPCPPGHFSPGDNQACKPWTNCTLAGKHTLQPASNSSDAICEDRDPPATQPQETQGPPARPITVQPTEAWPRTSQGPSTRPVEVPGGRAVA
Description: Recombinant human Vδ1 heterodimer or human OX40 was flown over the cell at a top concentration of 100 nM.

[14] = biological target: T8, TIGIT on activated CD4 T-cells; test: flow cytometry, anti-human IgG secondary antibody, activated CD4 T-cells
T8 chain: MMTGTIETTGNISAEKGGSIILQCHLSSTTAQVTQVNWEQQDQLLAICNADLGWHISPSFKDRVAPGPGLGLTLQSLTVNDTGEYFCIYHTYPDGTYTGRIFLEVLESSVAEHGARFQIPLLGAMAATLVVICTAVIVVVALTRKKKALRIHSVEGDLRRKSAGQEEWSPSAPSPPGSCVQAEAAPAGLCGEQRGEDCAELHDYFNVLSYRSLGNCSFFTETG

[15] = biological target: T9, Recombinant human MSLN (human, UniProt Q13421 296-580, limits assumed); test: SPR, Reichert 4SPR; antibody captured on Protein A chip, human MSLN flown over
T9 construct: also called mesothelin
T9 sequence (Q13421 other isoform, or with tags, fused parts or gaps limits assumed): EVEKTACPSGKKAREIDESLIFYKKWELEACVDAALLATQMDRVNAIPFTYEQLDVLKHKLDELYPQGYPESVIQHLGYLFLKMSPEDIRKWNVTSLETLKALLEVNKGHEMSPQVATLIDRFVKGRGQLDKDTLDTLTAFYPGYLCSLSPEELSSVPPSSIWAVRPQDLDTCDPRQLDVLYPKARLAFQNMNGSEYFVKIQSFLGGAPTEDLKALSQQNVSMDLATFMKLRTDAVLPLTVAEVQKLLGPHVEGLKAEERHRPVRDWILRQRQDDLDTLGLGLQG
Description: Recombinant human Vδ1 heterodimer or human MSLN was flown over the cell at a top concentration of 100 nM with the following parameters: 180 s association, 480 s dissociation, flowrate 25 μL/min, running buffer PBS+0.05% Tween 20. All experiments were performed at room temperature.

[16] = biological target: T4, L1 (DV1-GV4), soluble human Vδ1/Vγ4 γδ …; test: SPR (Reichert 4SPR), antibody on Protein A chip, antigen flown over; remark: listed apart in the source
Description: (§3) Recombinant human Vδ1 heterodimer or human FAPα was flown over the cell at a concentration of 100 nM with the following parameters: 180 s association, 480 s dissociation, flowrate 25 μL/min, running buffer PBS+0.05% Tween 20. All experiments were performed at room temperature.

[17] = biological target: T10, OX40 on activated CD4 T-cells; test: flow cytometry on anti-CD3/anti-CD28-activated CD4 T-cells, anti-human IgG secondary antibody, % cells bound IgG
T10 construct: also called OX40+ CD4 T-cells
T10 chain: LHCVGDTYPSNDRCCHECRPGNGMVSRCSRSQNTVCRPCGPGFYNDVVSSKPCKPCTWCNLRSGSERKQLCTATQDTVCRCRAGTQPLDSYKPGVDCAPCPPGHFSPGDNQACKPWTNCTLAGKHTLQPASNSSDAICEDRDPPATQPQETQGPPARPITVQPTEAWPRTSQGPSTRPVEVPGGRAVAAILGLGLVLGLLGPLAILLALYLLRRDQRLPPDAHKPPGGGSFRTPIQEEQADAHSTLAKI
Description: Initially CD4+ T-cells were negatively selected by magnetic sorting from PBMC buffy coats extracted from whole blood. Following activation by anti-CD3/anti-CD28 antibodies conjugated to Dynabeads (Invitrogen), cell surface expression of OX40 was elevated on CD4 T-cells. […] After washing, cells were incubated for a further 15 minutes with anti-human IgG secondary antibodies before washing and fixing. The amount of antibody bound to each cell type was determined by flow cytometry.

[18] = biological target: T1, Vδ1 chain of the γδ TCR on human Vδ1 γδ …; test: flow cytometry on Vδ1 γδ T-cells, anti-human IgG secondary antibody
Description: as §1

[19] = biological target: Recombinant human FAPα (human, UniProt Q12884 26-760); test: SPR, Reichert 4SPR; antibody captured on Protein A chip, human FAPα flown over
Description: as §3

[20] = biological target: T11, Recombinant human PD-1 (human, UniProt Q15116 25-167, limits assumed); test: SPR, Reichert 4SPR; antibody captured on Protein A chip, human PD-1 flown over
T11 construct: also called programmed cell death protein 1
T11 sequence (Q15116 25-167 limits assumed): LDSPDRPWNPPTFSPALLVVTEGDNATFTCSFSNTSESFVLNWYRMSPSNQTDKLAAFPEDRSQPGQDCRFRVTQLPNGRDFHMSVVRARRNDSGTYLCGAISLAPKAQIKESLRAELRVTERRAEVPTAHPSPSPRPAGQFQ
Description: Recombinant human Vδ1 heterodimer or human PD-1 was flown over the cell at a top concentration of 100 nM.

T1 sequence (A0A1B0GX56 22-115, stated change not applied): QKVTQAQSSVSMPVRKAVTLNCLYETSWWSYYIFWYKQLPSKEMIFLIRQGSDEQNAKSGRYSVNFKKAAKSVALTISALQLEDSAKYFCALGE

EC50 (read off the curve) [1]: ~0.2 nM | IC50 (read off the curve), Vδ1 TCR downregulation, γδ T-cells with FAPα+ fibroblasts [2]: ~2 nM | IC50 (read off the curve), Vδ1 TCR downregulation, γδ T-cells with activated OX40+ CD4 T-cells [3]: ~0.1 nM | binding result [4]: no binding (tested: 200 nM) | binding result [5]: no binding (tested: 200 nM) | binding result [6]: no binding (tested: about 70 nM) | Kd [7]: 1.25 nM | EC50 (read off the curve) [8]: ~2 nM | binding result [9]: no binding | EC50 (read off the curve) [10]: ~0.2 nM | EC50 (read off the curve) [11]: ~0.2 nM | binding result [12]: no binding (tested: 200 nM) | binding result [13]: no binding | binding result [14]: no binding (tested: 200 nM) | binding result [15]: no binding | Kd [16]: 0.14 nM | binding result [17]: no binding (tested: 200 nM) | EC50 (read off the curve) [18]: ~5 nM | binding result [19]: no binding | binding result [20]: no binding
B1: ADT1-4-2 (antibody, IgG1, V domains shown)
VH: EVQLQQSGPGLVKPSQTLSLTCAISGDSVSSKSAAWNWIRQSPSRGLEWLGRTYYRSKWSTDYAASVKSRITINPDTSKNQLSLQLNSVTPEDTAVYYCARTWVGYVDRWGQGTLVTVSS
VL: DIQMTQSPPALSASVGDRVTITCRASQDINDWLAWYQHKPGKAPKLLIYDASSLESGVPLRFSGSGSGTEFTLTISSLQPDDFATYYCQQKYSAPQVTFGQGTRLEIK
notes: IgG1
